Results published in patent EP2319871A1 (Sanofi-Aventis, dated 2011).
Values joined by “and” are separate entries in the source; they are usually repeats but may differ in a detail not shown here. Equal entries are not always repeated.

Legend:
[1] = target: T1, sRAGE (V-C1-C2) lot LP08062 (human, UniProt Q15109 23-342); test: SPR (Biacore), mAb captured on anti-mouse Fc, sRAGE 15 nM, 1:1 Langmuir
T1 construct: extracellular domain; also called Human RAGE; LP08062 (Rage)

[2] = target: RAGE-Fc (human) (UniProt Q15109); test: competition ELISA, mAb 10 µg/mL + RAGE-Fc 10 µg/mL on coated S100A6 (competitor S100A6)
Chain of RAGE-Fc (human) (Q15109 23-342 limits assumed): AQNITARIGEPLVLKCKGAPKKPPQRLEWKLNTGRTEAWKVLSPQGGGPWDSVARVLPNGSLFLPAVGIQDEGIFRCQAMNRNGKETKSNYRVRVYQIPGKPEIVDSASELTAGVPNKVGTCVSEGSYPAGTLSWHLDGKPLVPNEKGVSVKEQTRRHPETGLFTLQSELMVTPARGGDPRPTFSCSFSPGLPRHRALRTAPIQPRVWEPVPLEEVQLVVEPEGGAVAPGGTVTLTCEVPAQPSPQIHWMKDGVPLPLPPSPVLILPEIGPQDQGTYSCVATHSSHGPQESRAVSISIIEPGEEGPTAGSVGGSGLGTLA

[3] = target: T2, RAGE-Fc (human, UniProt Q15109 23-342, limits assumed); test: competition ELISA, RAGE-Fc 10 µg/mL + diluted mAb on coated S100A6 (competitor S100A6)
T2 construct: Format stated for the S100A12 and S100A6 ELISAs; also called hRAGE; not shown: Fc part, detected with anti-hIgG Fc-specific-POD
T2 sequence (Q15109 23-342 limits assumed): as above

[4] = target: T2, RAGE-Fc; test: competition ELISA, RAGE-S100A6 interaction (competitor S100A6)

T1 sequence (Q15109 23-342): as the sequence (Q15109 23-342 limits assumed) above

Row | Kd [1] [nM] | koff [1] [s⁻¹] | kon [1] [M⁻¹ s⁻¹] | inhibitory effect [2] [%] | IC50 [3] | IC50 [4] [nM] | Binder
1 | 0.236 | 0.00136 | 5.76e+06 | – | – | – | 130 RAGE-1 (antibody, V domains shown, Hybridoma monoclonal antibody, captured on anti-mouse Fc in Biacore; also called Protein 130 RAGE-1) VH: EVQLVESGGGLVKPGGSLKLSCAASGFTFSSYVMSWVRQSPEKRLEWVAEISSGGSYTYYPDTVTGRFTISRDNDKNTLYLEMSSLRSEDTAMYYCARPPYGKDAMDYWGQGTSVTVSS VL: QIVLTQSPAIMSASPGEKVTMTCSASSSVSYMHWYQQKSGTSPKRWISDTSKLASGVPARFSGSGSGTSYSLTISSMEAEDAATYYCQQWSSNPPTFGGGTKLEIK
2 | 0.303 | 0.00157 | 5.19e+06 | – | – | – | 140 RAGE-1 (antibody, V domains shown, Hybridoma monoclonal antibody, captured on anti-mouse Fc in Biacore; also called Protein 140 RAGE-1) VH: QVQLQQPGAELVKPGASVRLSCKASGYTFTSYWMHWVKQRPGQGLEWIGEINPSNGRTNYNEKFKSKATLTVDKSSSTAYMQLSSLTSEDSAVYYCARDGLGYRPIAMDYWGQGTSVTVSS VL: QIVLTQSPAIMSASPGEKVTISCSASSSVSYMYWYQQKPGSSPKPWIYRTSNLASGVPARFSGSGSGTSYSLTISSMEAEDAATYYCQQYHSYPPMYTFGGGTKLEIK
3 | 0.687 | 0.00265 | 3.86e+06 | > 20 | – | – | 152 RAGE-1 (antibody, V domains shown, Hybridoma monoclonal antibody, captured on anti-mouse Fc in Biacore; also called LP08104; Protein 152 RAGE-1) VH: DVQLQESGPDLVKPSQSLSLTCTVTGYSITSGYSWHWIRQFPGNKLEWMGYIHYSGSTNYNPSLKSRISITRDTSKNQFFLQLNSVTTEDTATYYCARGGDFAYWGQGTLVTVSA VL: DIVLTQSPASLAVSLGQRATISCRASKSVGTSDSSYMHWYQQKPGQPPKLLIYLASNLESGVPARFSGSGSGTDFTLNIHPVEEEDAATYYCQHSRELYTFGGGTKLEIK

Continued, binder first:

Row | Binder | Kd [1] [nM] | koff [1] [s⁻¹] | kon [1] [M⁻¹ s⁻¹] | inhibitory effect [2] [%] | IC50 [3] | IC50 [4] [nM]
4 | 95 RAGE-1 (antibody, V domains shown, Hybridoma monoclonal antibody, captured on anti-mouse Fc in Biacore; also called Protein 95 RAGE-1) VH: QVQLQQPGAELVKPGASVKLSCKASGYTFTSYWMHWVKQRPGQGLEWIGESNPSNGRTNYNEKFKNKATLTVDKSSSTAYMQLSSLTSEDSAVYYCARAPYYGFDYWGQGTTLTVSS VL: QAVVTQESALTTSPGETVTLTCRSSTGAVTTSNYANWVQEKPDHLFTGLTGGTNNRAPGVPARFSGSLIGDKAALTITGAQTEDEAIYFCALWYSNHWVFGGGTKLTVL | 0.462 | 0.00123 | 2.66e+06 | – | – | –
5 | 56 RAGE-1 (antibody, V domains shown, Hybridoma monoclonal antibody, captured on anti-mouse Fc in Biacore; also called LP08103; Protein 56 RAGE-1) VH: QVQLQQSGPELVKPGASVRISCKASGYTFTSYFIHWVKQRPGQGLEWIGWIYPGNVNTKYNEKFKDKATLTADKSSSTAYMQLSNLTSEDSAVYFCVRGQLGDYWGQGITLTVSS VL: DIVMTQSQKFMSTSVGDRVSVTCKASQNVGINVAWYQQKPGQSPKALIYSASYRYSGVPDRFTGSGSGTDFTLIISNVQSEDLAEYFCQQYNNYPRTFGGGTKLEIK | 1.87 | 0.00539 | 2.89e+06 | – | 1.16 µg/mL and 7.73 nM | 7.7
